# Columns and labels:
# [1] = target: Jak2 (UniProt O60674); assay: phosphorylation enrichment, bacterial display (enrichment ratio); higher = better substrate or ligand; peptides without Tyr show the background
# [2] = test system: AncSZ; assay: as above
# [3] = target: Fes (UniProt P07332); assay: as above
# [4] = target: FGFR1 (UniProt P11362); assay: as above
# [5] = target: FGFR3 (UniProt P22607); assay: as above
# [6] = test system: c-Src; assay: as above
# [7] = target: Fyn (UniProt P06241); assay: as above
# [8] = target: EPHB2 (UniProt P29323); assay: as above
# [9] = test system: Fer (mouse); assay: as above
# [10] = target: EPHB1 (UniProt P54762); assay: as above
# [11] = target: Hck (UniProt P08631); assay: as above
# [12] = target: MERTK (UniProt Q12866); assay: as above
# [13] = test system: c-Abl (mouse); assay: as above
# [14] = target: SHP2-C SH2; assay: SH2 binding enrichment of the phosphorylated peptide, bacterial display (enrichment ratio); higher = better substrate or ligand; peptides without Tyr show the background
# [15] = target: c-Src SH2; assay: as above
# [16] = target: Grb2 SH2 (UniProt P62993); assay: as above
# 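Throughout, for SH2 binding enrichment of the phosphorylated peptide, bacterial display: peptide library displayed on the E. coli surface as eCPX fusions, selected cells deep-sequenced, score is each peptide's frequency after selection divided by its frequency in the input.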
# 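Throughout, for phosphorylation enrichment, bacterial display: 11-residue human phosphosite peptides and single-mutation variants displayed on the E. coli surface, counted by deep sequencing, each peptide's frequency after selection divided by its frequency in the unselected input library; frequency after pTyr selection over input frequency; kinase dosed for 20-30% of maximal phosphorylation in three min.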
# FGFR1, sequence (P11362 whole entry, looked up): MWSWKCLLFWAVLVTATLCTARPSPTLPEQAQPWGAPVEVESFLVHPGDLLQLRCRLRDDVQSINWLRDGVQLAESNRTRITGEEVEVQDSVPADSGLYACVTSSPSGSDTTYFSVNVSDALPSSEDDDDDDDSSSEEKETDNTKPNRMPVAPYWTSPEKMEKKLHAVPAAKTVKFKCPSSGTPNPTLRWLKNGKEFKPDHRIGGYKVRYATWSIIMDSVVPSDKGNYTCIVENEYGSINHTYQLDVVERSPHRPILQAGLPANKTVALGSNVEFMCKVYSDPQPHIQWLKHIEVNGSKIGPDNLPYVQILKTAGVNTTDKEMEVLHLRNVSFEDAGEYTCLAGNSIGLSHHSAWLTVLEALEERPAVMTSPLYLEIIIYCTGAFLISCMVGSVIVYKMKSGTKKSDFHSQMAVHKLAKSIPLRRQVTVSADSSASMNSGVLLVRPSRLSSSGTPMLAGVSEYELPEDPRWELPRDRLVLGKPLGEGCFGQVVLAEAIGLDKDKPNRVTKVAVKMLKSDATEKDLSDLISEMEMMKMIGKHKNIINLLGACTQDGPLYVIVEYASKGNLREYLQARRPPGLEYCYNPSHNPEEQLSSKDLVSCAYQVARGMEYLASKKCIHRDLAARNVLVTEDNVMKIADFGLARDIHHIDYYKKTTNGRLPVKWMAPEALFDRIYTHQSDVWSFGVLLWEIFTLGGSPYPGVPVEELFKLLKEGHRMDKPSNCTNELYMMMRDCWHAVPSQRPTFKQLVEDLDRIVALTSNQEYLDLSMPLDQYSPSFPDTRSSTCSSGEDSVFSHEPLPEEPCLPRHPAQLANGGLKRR
# MERTK, sequence (Q12866 whole entry, looked up): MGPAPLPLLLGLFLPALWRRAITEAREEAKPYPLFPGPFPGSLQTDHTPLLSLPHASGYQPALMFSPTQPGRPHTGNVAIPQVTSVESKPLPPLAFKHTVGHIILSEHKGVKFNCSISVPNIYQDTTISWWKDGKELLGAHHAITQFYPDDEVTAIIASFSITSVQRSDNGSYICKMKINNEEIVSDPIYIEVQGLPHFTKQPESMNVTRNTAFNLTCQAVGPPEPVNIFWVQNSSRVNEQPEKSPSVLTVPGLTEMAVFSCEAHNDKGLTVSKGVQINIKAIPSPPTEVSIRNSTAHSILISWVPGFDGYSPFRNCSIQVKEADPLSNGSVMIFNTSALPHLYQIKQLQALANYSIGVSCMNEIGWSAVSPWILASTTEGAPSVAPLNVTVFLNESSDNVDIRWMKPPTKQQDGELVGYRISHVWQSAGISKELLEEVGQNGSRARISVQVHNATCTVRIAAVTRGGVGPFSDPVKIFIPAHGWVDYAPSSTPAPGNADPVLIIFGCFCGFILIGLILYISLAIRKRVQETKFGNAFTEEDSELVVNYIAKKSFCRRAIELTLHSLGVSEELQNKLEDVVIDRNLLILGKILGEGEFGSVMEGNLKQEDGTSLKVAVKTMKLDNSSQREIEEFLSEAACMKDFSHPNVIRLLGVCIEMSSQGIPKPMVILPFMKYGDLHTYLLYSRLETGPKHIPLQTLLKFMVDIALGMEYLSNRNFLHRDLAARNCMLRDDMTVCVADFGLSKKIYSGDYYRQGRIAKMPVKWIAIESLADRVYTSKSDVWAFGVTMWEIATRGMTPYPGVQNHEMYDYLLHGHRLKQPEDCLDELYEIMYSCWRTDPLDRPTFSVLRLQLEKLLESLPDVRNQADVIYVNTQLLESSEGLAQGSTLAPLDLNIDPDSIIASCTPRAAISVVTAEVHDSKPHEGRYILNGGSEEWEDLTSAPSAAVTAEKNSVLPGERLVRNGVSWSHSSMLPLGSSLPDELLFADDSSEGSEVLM
# Jak2, sequence (O60674 whole entry, looked up): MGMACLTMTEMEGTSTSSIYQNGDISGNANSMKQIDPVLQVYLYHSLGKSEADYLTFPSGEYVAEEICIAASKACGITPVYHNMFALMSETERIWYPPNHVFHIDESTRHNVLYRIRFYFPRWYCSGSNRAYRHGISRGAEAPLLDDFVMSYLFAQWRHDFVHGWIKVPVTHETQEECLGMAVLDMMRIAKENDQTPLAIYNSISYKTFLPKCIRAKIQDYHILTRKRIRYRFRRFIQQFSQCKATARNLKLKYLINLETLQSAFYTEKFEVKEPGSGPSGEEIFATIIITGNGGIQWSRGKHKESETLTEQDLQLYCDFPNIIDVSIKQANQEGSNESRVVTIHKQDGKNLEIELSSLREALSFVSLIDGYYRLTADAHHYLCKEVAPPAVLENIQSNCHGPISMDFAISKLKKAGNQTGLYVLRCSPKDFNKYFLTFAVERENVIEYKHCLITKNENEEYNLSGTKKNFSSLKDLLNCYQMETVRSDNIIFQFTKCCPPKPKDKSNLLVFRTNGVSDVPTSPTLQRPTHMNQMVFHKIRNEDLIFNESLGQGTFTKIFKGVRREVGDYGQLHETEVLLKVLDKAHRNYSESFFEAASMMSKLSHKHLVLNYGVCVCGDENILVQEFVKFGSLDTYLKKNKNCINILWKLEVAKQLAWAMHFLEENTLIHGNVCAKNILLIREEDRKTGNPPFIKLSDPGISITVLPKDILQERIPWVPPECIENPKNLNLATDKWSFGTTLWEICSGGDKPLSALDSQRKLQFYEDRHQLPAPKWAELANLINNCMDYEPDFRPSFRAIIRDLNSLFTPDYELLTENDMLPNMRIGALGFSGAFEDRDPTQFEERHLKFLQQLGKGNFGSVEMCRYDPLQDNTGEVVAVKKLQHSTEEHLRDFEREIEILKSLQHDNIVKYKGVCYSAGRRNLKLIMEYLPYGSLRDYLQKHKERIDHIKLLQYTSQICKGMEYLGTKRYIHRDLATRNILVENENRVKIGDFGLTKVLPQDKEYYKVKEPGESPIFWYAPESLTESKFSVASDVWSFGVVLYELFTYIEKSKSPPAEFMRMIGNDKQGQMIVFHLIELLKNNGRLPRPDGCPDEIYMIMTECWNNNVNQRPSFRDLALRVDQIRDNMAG
# Fyn, sequence (P06241 whole entry, looked up): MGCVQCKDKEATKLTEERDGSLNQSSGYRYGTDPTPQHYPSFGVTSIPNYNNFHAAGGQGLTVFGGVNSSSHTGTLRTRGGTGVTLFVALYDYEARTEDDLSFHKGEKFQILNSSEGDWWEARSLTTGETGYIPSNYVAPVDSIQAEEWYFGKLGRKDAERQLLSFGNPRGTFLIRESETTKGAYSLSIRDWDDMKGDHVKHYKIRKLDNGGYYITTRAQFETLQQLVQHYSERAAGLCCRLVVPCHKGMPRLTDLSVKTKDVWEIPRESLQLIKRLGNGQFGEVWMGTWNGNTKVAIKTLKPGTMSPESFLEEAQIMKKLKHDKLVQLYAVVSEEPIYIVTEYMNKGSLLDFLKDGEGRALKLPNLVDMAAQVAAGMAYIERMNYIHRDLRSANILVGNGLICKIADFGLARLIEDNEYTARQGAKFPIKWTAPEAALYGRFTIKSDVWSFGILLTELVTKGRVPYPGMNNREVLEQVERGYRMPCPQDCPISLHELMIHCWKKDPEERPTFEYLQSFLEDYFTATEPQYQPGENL
# EPHB1, sequence (P54762 whole entry, looked up): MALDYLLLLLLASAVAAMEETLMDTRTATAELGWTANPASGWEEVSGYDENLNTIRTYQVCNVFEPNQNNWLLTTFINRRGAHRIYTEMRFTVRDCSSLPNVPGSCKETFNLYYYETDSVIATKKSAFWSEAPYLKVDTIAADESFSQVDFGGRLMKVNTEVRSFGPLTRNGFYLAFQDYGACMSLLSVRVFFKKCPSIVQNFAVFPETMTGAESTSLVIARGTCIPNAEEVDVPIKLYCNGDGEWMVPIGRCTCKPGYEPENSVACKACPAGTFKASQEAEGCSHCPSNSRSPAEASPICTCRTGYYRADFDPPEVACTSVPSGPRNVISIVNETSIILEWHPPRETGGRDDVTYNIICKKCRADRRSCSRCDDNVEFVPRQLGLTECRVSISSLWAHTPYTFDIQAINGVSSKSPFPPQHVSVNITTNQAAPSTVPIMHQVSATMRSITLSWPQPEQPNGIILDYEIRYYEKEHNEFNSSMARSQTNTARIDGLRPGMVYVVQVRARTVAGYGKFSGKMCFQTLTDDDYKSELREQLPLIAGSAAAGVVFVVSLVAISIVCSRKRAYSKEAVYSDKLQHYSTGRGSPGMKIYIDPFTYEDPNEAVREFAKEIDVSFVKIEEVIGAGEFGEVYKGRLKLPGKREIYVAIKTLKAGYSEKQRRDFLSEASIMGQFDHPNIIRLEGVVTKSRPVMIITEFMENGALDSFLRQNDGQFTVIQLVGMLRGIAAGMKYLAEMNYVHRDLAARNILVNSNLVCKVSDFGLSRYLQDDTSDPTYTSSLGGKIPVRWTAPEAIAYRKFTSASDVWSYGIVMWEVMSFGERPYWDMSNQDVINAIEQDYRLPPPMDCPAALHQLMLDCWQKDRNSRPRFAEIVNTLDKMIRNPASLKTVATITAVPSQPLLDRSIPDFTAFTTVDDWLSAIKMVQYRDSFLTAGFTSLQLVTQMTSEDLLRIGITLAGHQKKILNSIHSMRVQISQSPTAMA
# Grb2 SH2, sequence (P62993 whole entry, looked up, the tested form may be a part): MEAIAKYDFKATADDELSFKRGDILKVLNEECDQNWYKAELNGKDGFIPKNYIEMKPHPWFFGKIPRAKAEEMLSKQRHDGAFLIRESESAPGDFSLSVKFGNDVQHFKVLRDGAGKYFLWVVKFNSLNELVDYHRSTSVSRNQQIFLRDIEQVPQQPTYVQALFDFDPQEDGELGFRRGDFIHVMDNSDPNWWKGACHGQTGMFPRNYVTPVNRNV
Sequence,phosphorylation enrichment [1],phosphorylation enrichment [2],phosphorylation enrichment [3],phosphorylation enrichment [4],phosphorylation enrichment [5],phosphorylation enrichment [6],phosphorylation enrichment [7],phosphorylation enrichment [8],phosphorylation enrichment [9],phosphorylation enrichment [10],phosphorylation enrichment [11],phosphorylation enrichment [12],phosphorylation enrichment [13],SH2 binding enrichment [14],SH2 binding enrichment [15],SH2 binding enrichment [16]
TEGNEYVFRVA,0.949,1.08,1.28,0.647,0.822,0.528,0.583,0.627,0.44,0.593,0.486,0.421,0.647,0.69,0.493,0.708
ISTAGYSIPEL [EDAR_Y406],0.745,0.807,0.92,0.416,0.697,0.457,0.397,0.464,0.436,0.525,0.534,0.713,1.46,0.893,7.33,0.796
TFGVAYRAKDK [CDK11B_Y453_V452A_YF],1.09,1.08,1.03,0.418,0.484,0.282,0.437,0.575,0.342,0.472,0.537,0.358,0.498,0.674,0.507,0.842
QEGPEYWDEET [HLA-A_Y83_Q86E],1.38,2.5,1.88,1.24,1.33,0.796,1.02,1.25,0.951,1.25,1.05,1.07,1.32,0.699,0.646,0.91
CERLPYDASKW [FLT1_Y815],1.01,0.951,1.13,0.523,0.688,0.464,0.45,0.46,0.49,0.589,0.525,0.409,0.824,0.72,0.632,0.746
FTDPFYDFEIE [ZC3H18_Y372_A368T_YF],1.66,1.37,1.54,0.665,0.783,4.96,4.1,0.867,1.03,1.54,0.823,0.777,1.05,0.657,0.441,0.995
VDTFWYKLLKR [EPM2A_Y86_F88L],0.937,0.971,1.06,0.439,0.644,0.347,0.372,0.548,0.456,0.493,0.331,0.342,0.748,0.66,0.646,1.04
SEVVPYEPPEV [TP53_Y220_V216E],1.16,1.28,1.33,0.601,0.81,0.529,0.583,0.621,0.585,0.604,0.582,0.473,0.784,1.02,0.563,0.902
LKTNCYNNGKD [DNMT3B_Y404],1.24,1.12,1.21,0.685,1.12,0.572,0.649,0.818,0.68,1.09,0.879,0.601,3.04,0.694,0.429,0.764
PIPAAYNKYDQ [CDC73_Y290_R292K],0.754,0.707,0.904,0.608,0.448,0.689,0.46,0.599,0.394,0.417,0.595,0.617,0.944,1.33,0.478,0.39
TYGQVYKGPHV [TNIK_Y40_R43P],0.826,0.68,0.751,0.534,0.468,9.04,12.4,0.633,0.398,0.586,7.7,0.618,0.666,0.755,0.579,0.702
LGGAMYYLEAD [PKHD1_Y452_E457D],1.19,1.39,1.48,1.36,1.6,1.86,1.7,0.672,0.664,0.839,1.08,1.62,0.956,0.762,1.1,0.83
PTKNDYWAMLA [WWOX_Y287],1.12,1.64,1.5,7.82,4.3,0.912,0.695,1.61,0.447,1.78,0.705,0.443,0.939,0.617,0.721,1.07
KLRMESLSLMH [NCKIPSD_Y660_Y660S],0.644,0.658,0.782,0.453,0.476,0.457,0.45,0.483,0.388,0.423,0.415,0.436,0.508,0.923,0.746,1.15
AKLVQYFMEHH [PTPN11_Y80_E76K_YF],0.63,0.729,0.853,0.496,0.684,0.412,0.374,0.505,0.445,0.462,0.441,0.362,0.546,1.62,0.97,1.31
SVTCMYSPALN [TP53_Y126_T125M],1.36,1.39,1.47,0.481,0.749,0.804,0.501,0.632,0.667,0.738,0.594,0.472,0.97,0.52,0.457,0.737
DIDKIYIRTGI [PIK3CA_Y355_V356I],1.06,1.25,1.01,0.521,0.673,0.395,0.479,0.543,0.839,0.585,0.481,0.342,0.576,0.896,0.623,0.857

Sequence,phosphorylation enrichment [1],phosphorylation enrichment [2],phosphorylation enrichment [3],phosphorylation enrichment [4],phosphorylation enrichment [5],phosphorylation enrichment [6],phosphorylation enrichment [7],phosphorylation enrichment [8],phosphorylation enrichment [9],phosphorylation enrichment [10],phosphorylation enrichment [11],phosphorylation enrichment [12],phosphorylation enrichment [13],SH2 binding enrichment [14],SH2 binding enrichment [15],SH2 binding enrichment [16]
LNPDGYKKAFE [CPXM2_Y427_E428K_YF],1.68,1.02,2.1,0.866,0.833,0.827,0.495,0.793,0.67,0.727,0.54,0.727,1.28,0.578,0.488,0.945
NGLVAYKDGKL [PMM2_Y76],0.528,0.602,0.612,0.431,0.448,0.423,0.305,0.403,0.457,0.341,0.372,0.429,0.427,0.669,0.436,0.917
ISSLPYMKMIF [SLC4A11_Y853_M848I],1.35,1.05,1.07,0.696,0.665,0.79,0.457,0.547,1.11,0.536,0.677,0.668,0.872,1.52,1.61,1.19
EGNEQYEGYCV [GRIA3_Y451_R450Q],0.942,1.19,1.05,0.557,0.691,0.506,0.567,0.592,1.11,0.556,0.604,0.422,1.26,0.768,1.23,1.01
CEQELYSQLVY [WAS_Y102_W97C],1.22,1.9,1.81,3.8,3.67,5.28,6.54,5.74,11.2,4.86,6.75,5.03,1.14,0.556,0.518,0.731
EFKDAYTFAAD [BRDT_Y335_K336T_YF],0.835,1.09,0.959,0.508,0.606,1.36,0.63,0.519,0.477,0.452,0.57,0.456,0.647,0.713,0.703,0.813
GESQGYDIMEP [MSH2_Y863],0.827,1.14,0.94,0.424,0.642,0.419,0.454,0.555,0.441,0.541,0.487,0.472,0.605,0.85,5.63,0.683
QLAPQYTYAQG [FLNA_Y1761],0.696,0.722,1.01,0.714,0.704,0.693,0.61,1.19,0.448,0.52,0.624,0.65,0.61,2.01,3.16,0.887
CGLPRYRWLTH [TSPAN12_Y143_Y138C],0.669,0.848,0.929,0.435,0.476,0.357,0.707,0.645,0.438,0.47,0.525,0.461,0.453,0.536,0.442,0.838
RVLHNYLVWRV [ECEL1_Y400],1.07,2.51,1.93,1.4,1.7,0.526,0.867,1.12,1.12,1.6,1.01,0.79,0.762,1.79,1.73,1.74
SFMVRYNQPRV [GRIN2D_Y736_YF],0.685,0.832,0.954,0.473,0.57,0.398,0.446,0.698,0.423,0.557,0.505,0.389,0.582,0.959,0.894,1.1
TNFSLYLRSLE [MTM1_Y71_R69S_YF],1.36,1.2,1.38,0.41,0.744,0.385,0.368,0.491,0.438,0.754,0.432,0.42,0.908,0.91,0.687,0.708
LDLSYYHTSSS [EMD_Y182_P183H],1.51,0.929,0.977,1.11,1.22,0.676,0.509,0.614,0.451,0.516,0.452,0.634,0.672,1.36,1.19,1.26
TEVIWYKGDEE,1.45,1.72,1.55,0.445,0.704,0.601,0.445,0.606,0.393,0.516,0.335,0.51,0.691,0.624,0.478,0.484
CTTIHCNYMCN [TP53_Y234_Y234C],0.921,1.06,1.15,0.41,0.731,1.14,0.403,0.612,0.599,0.784,0.503,0.395,0.775,0.711,0.632,0.729
WVFNHYRWIIW [BRCA2_Y2624_YF],1.36,1.29,1.39,0.452,0.824,0.432,0.343,0.536,0.456,0.611,0.403,0.437,0.862,0.776,0.717,1.09

# Reference: the supplement of paper PMC10065799, “High-throughput profiling of sequence recognition by tyrosine kinases and SH2 domains using bacterial peptide display” (eLife, 2023)
